Results published in the Immune Epitope Database (IEDB).
pKd: −log10 of the molar value.

Key:
[1] = target: HLA-A*01:01; test: IEDB peptide-MHC binding, purified MHC/direct/fluorescence; filed as Kd, often an IC50 or EC50 that approximates it; ≥ and ≤ were set here for values at or beyond the usual limits of such assays
[2] = target: HLA-A*68:02; test: as above
[3] = target: HLA-A*26:03; test: as above
[4] = target: HLA-A*11:01; test: as above
[5] = target: HLA-B*57:01; test: as above
[6] = target: HLA-C*07:02; test: as above
[7] = target: HLA-A*69:01; test: as above
[8] = target: HLA-A*24:03; test: as above; conditions: source organism: Camelpox virus M-96
[9] = target: HLA-B*15:09; test: as above
[10] = target: HLA-A*31:01; test: as above
[11] = target: HLA-B*08:03; test: as above
[12] = target: HLA-B*07:02; test: as above
[13] = target: HLA-B*15:01; test: as above
[14] = target: HLA-A*26:02; test: as above
[15] = target: HLA-B*58:01; test: as above
[16] = target: HLA-B*15:17; test: IEDB peptide-MHC binding, purified MHC/competitive/fluorescence; filed as Kd, often an IC50 or EC50 that approximates it; ≥ and ≤ were set here for values at or beyond the usual limits of such assays; conditions: source organism: Vaccinia virus WR
[17] = target: HLA-A*02:01; test: as above; conditions: source organism: Vaccinia virus WR
[18] = target: HLA-B*18:01; test: as above; conditions: source organism: Vaccinia virus WR
[19] = target: HLA-B*48:01; test: IEDB peptide-MHC binding, purified MHC/direct/fluorescence; filed as Kd, often an IC50 or EC50 that approximates it; ≥ and ≤ were set here for values at or beyond the usual limits of such assays
[20] = target: HLA-B*27:05; test: as above
[21] = target: HLA-B*73:01; test: as above
[22] = target: HLA-B*40:01; test: as above
[23] = target: HLA-A*30:01; test: as above; conditions: source organism: Salmonella enterica subsp. enterica serovar Typhi
[24] = target: HLA-B*44:02; test: as above
[25] = target: HLA-C*06:02; test: as above; conditions: source organism: Salmonella enterica subsp. enterica serovar Typhi str. CT18
[26] = target: HLA-A*26:01; test: as above
[27] = target: HLA-A*02:01; test: as above
[28] = target: HLA-B*08:01; test: as above
[29] = target: HLA-A*03:01; test: as above
[30] = target: HLA-B*45:06; test: IEDB peptide-MHC binding, purified MHC/competitive/fluorescence; filed as Kd, often an IC50 or EC50 that approximates it; ≥ and ≤ were set here for values at or beyond the usual limits of such assays; conditions: source organism: Mycobacterium tuberculosis variant bovis BCG str. Pasteur 1173P2
[31] = target: HLA-B*15:42; test: as above; conditions: source organism: Mycobacterium tuberculosis variant bovis BCG str. Pasteur 1173P2
[32] = target: HLA-B*83:01; test: as above; conditions: source organism: Mycobacterium tuberculosis variant bovis BCG str. Pasteur 1173P2
[33] = target: HLA-A*03:19; test: as above; conditions: source organism: Mycobacterium tuberculosis variant bovis BCG str. Pasteur 1173P2
[34] = target: HLA-B*08:02; test: IEDB peptide-MHC binding, purified MHC/direct/fluorescence; filed as Kd, often an IC50 or EC50 that approximates it; ≥ and ≤ were set here for values at or beyond the usual limits of such assays
[35] = target: HLA-B*39:01; test: as above
[36] = target: HLA-B*15:17; test: as above
[37] = target: HLA-B*46:01; test: as above
[38] = target: HLA-B*18:01; test: as above
[39] = target: HLA-B*48:01; test: IEDB peptide-MHC binding, purified MHC/competitive/fluorescence; filed as Kd, often an IC50 or EC50 that approximates it; ≥ and ≤ were set here for values at or beyond the usual limits of such assays; conditions: source organism: Orthomarburgvirus marburgense
[40] = target: HLA-A*26:02; test: as above; conditions: source organism: Orthomarburgvirus marburgense
[41] = target: HLA-A*29:02; test: IEDB peptide-MHC binding, purified MHC/direct/fluorescence; filed as Kd, often an IC50 or EC50 that approximates it; ≥ and ≤ were set here for values at or beyond the usual limits of such assays; conditions: source organism: Vibrio cholerae
[42] = source organism: Camelpox virus M-96
[43] = source organism: Mycobacterium tuberculosis
[44] = source organism: Salmonella enterica
[45] = source organism: Salmonella enterica subsp. enterica serovar Typhi
[46] = source organism: Marburg virus - Musoke, Kenya, 1980
[47] = source organism: Ravn virus - Ravn, Kenya, 1987
[48] = source organism: Influenza A virus (A/quail/Hong Kong/FY298/00(H9N2))
[49] = source organism: Influenza B virus (B/Beijing/184/93)
[50] = source organism: Vibrio cholerae

Sequence: FYLFTFTIY
- pKd [1, 42]: ≤ 4.70
- pKd [2, 42]: ≤ 4.70
- pKd ([3]; source organism: Variola virus): ≤ 4.70
- pKd [4, 42]: ≤ 4.70
- pKd [5, 42]: ≤ 4.70
- pKd ([6]; source organism: Vaccinia virus WR): 5.70
- pKd [7, 42]: ≤ 4.70
- pKd [8]: 5.90
- pKd ([9]; source organism: Variola virus): ≤ 4.70
- pKd [10, 42]: ≤ 4.70
- pKd ([11]; source organism: Variola virus): ≤ 4.70
- pKd [12, 42]: ≤ 4.70
- pKd [13, 42]: ≤ 4.70
- pKd ([14]; source organism: Variola virus): ≤ 4.70
- pKd [15, 42]: ≤ 4.70
- pKd [16]: ≤ 4.70
- pKd [17]: ≤ 4.70
- pKd [18]: 5.41

Sequence: QRIAVPVTK
- pKd [19, 43]: ≤ 4.70
- pKd [20, 43]: 7.02
- pKd ([21]; source organism: Mycobacterium tuberculosis str. Haarlem): ≤ 4.70

Sequence: RRRQWASCM
- pKd [22, 44]: ≤ 4.70
- pKd [1, 44]: ≤ 4.70
- pKd [23]: ≤ 4.70
- pKd [24, 44]: ≤ 4.70
- pKd [4, 44]: ≤ 4.70
- pKd ([6]; source organism: Salmonella enterica subsp. enterica serovar Typhi str. CT18): 7.35
- pKd [7, 44]: ≤ 4.70
- pKd [25]: 7.62
- pKd [10, 44]: ≤ 4.70
- pKd [26, 44]: ≤ 4.70
- pKd [20, 45]: 7.11
- pKd [13, 44]: ≤ 4.70
- pKd [27, 44]: ≤ 4.70
- pKd ([21]; source organism: Salmonella enterica subsp. enterica serovar Typhimurium): ≤ 4.70
- pKd [28, 45]: 4.86
- pKd [29, 44]: ≤ 4.70
- pKd [15, 44]: ≤ 4.70

Sequence: RWRWFRAAM
- pKd [30]: ≤ 5.30
- pKd [31]: ≤ 5.30
- pKd [32]: ≤ 5.30
- pKd [33]: 6.09

Sequence: THYSGNIVH
- pKd [22, 46]: ≤ 4.70
- pKd [1, 46]: ≤ 4.70
- pKd [34, 47]: ≤ 4.70
- pKd [35, 46]: 7.56
- pKd [2, 46]: ≤ 4.70
- pKd [5, 46]: ≤ 4.70
- pKd [36, 46]: ≤ 4.70
- pKd [7, 46]: ≤ 4.70
- pKd [9, 47]: 7.34
- pKd [37, 46]: ≤ 4.70
- pKd [26, 47]: ≤ 4.70
- pKd [20, 46]: ≤ 4.70
- pKd [12, 46]: ≤ 4.70
- pKd [13, 46]: ≤ 4.70
- pKd [27, 46]: ≤ 4.70
- pKd [28, 47]: ≤ 4.70
- pKd [38, 46]: ≤ 4.70
- pKd [15, 46]: ≤ 4.70
- pKd [39]: ≤ 4.70
- pKd [40]: ≤ 4.70

Sequence: TKDAERGKL
- pKd [22, 48]: ≤ 4.70
- pKd [1, 48]: ≤ 4.70
- pKd [19, 48]: ≤ 4.70
- pKd [34, 49]: ≤ 4.70
- pKd [35, 48]: ≤ 4.70
- pKd [2, 48]: ≤ 4.70
- pKd [3, 49]: ≤ 4.70
- pKd [5, 48]: ≤ 4.70
- pKd [36, 48]: ≤ 4.70
- pKd [7, 48]: ≤ 4.70
- pKd [9, 49]: ≤ 5.00
- pKd [37, 48]: ≤ 4.70
- pKd [20, 48]: ≤ 4.70
- pKd [12, 48]: ≤ 4.70
- pKd [13, 48]: ≤ 4.70
- pKd [27, 48]: ≤ 4.70
- pKd [28, 49]: ≤ 4.70
- pKd [38, 48]: ≤ 4.70
- pKd [14, 49]: ≤ 4.70
- pKd [29, 48]: ≤ 4.70
- pKd [15, 48]: ≤ 4.70

Sequence: VLKLRFWLI
- pKd [22, 50]: ≤ 4.70
- pKd [1, 50]: ≤ 4.70
- pKd [19, 50]: ≤ 4.70
- pKd [34, 50]: ≤ 4.70
- pKd [24, 50]: ≤ 4.70
- pKd [41]: ≤ 4.70
- pKd [4, 50]: ≤ 4.70
- pKd [5, 50]: ≤ 4.70
- pKd [7, 50]: ≤ 4.70
- pKd [37, 50]: ≤ 4.70
- pKd [10, 50]: ≤ 4.70
- pKd [20, 50]: ≤ 4.70
- pKd [11, 50]: 6.73
- pKd [12, 50]: ≤ 4.70
- pKd [13, 50]: ≤ 4.70
- pKd [27, 50]: ≤ 4.70
- pKd [28, 50]: 7.47
- pKd [38, 50]: ≤ 4.70
- pKd [29, 50]: ≤ 4.70
- pKd [15, 50]: ≤ 4.70
